Laboratory results as given in publication doi:10.1101/2024.06.17.598829 (bioRxiv, 2024).
“And” between values parts separate entries of the source, which are not always exact repeats. Identical values can stand only once.

Molecular target: the molecule itself
Test: SEC

B1: MBP:NPH3-C104 (domain or fragment, Arabidopsis, UniProt Q9FMF5 643-746, looked up)
chain: PQSFQEGWAAAKKDINTLKFELETVKTKYVELQNEMEVMQRQFEKTGKVKNTPSSSAWTSGWKKLSKLTKMSGQESHDISSGGEQAGVDHPPPRKPRRWRNSIS
- stoichiometry N: 3 and 6
